Laboratory results taken from patent US20210087270A1 (INNATE PHARMA, published 2021).

B1: antibody 10G5 (antibody, V domains shown)
VH: QVQLQQSAAELARPGASVKMSCKASGYTFTSYTMHWVKQRPGQGLEWIGYINPSSGYTENNRKFKDKTTLTADKSSSTAYMQLSSLTSEDSAVYYCARLGKGLLPPFDYWGQGTTLTVSS
VL: DIQMTQSPASLSVSVGETVTITCRASENIYSNLAWYQQKQGKSPQLLVYAATNLADGVPSRFSGSGSGTQYSLKINSLQSEDFGSYYCQHFWGTPYTFGGGTKLEIK
B2: antibody 13H1 (antibody, V domains shown)
VH: EVQLQQSGPELVKPGASMKISCKASHYSFIGYTMNWVKQRHGKNLEWIGLINPYNGDTTYNQKFKGKASLTVDKSSSTAYMEILSLTSEDSAVYYCARENWGYPYAMDYWGQGTSVTVS
VL: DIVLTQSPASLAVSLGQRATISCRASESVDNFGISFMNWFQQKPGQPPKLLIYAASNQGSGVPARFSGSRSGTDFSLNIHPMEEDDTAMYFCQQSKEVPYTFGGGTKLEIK
B3: antibody 10F6 (antibody, V domains shown)
VH: QIQLVQSGPELKKPGETVRISCKASGYTFTIAGMQWVQKMPGKGLKWIGWINTHSGVPKYAEDFKGRFAFSLETSANIAYLQISNLKNEDTATYFCARGGDEGVMDYWGQGTSVTVS
VL: DIVMTQSHKFMSTSVGDRVSITCKASQDVSTAVAWYHQKPGQSPKLLIYWASTRHTGVPDRFSGSGSGTDYTLTISALQAEDLALYYCQQHYNTPWTFGGGTKLEIK
notes: Detected with goat anti-mouse antibody
B4: antibody 1C3 (antibody, V domains shown)
VH: QVQLQQSGAELARPGASVKLSCKASGYTFTSYWMQWVKQRPGQGLEWIGAIYPGDGDTRYTQKFKGKATLTADKSSSTAYMQLSSLASEDSAVYYCARRYDGYYHFDYWGQGTTLTVS
VL: DIVMTQSPSSLAVTAGEKVTMSCKSSQSLLWSVNQKNYLSWYQQKQRQPPKLLIYGASIRESWVPDRFTGSGSGTDFTLTISNVHAEDLAVYYCQHNHGSFLPLTFGSGTKLEIK
B5: antibody 20E9 (antibody, V domains shown)
VH: QVQLQQSGAEVARPGASVKLSCKSSGFTFTTYWMQWVKQRPGQGLEWIGAIYPGDGDTRYTQKFKGKATLTADKSSITAYMQLSSLASEDSAVYYCARRGDYGNYGMDYWGQGTSVTVSS
VL: DVLMTQTPLSLPVSLGDQASISCRSSQSIVHSNGNTYLEWYLQKPGQSPKLLIYKVSNHFSGVPDRFSGSGSGTDFTLKISRVEAEDLGVYYCFQGSHVPPTFGGGTKLEIK
B6: antibody 1E2 (antibody, V domains shown)
VH: QVQLQQSGAELVRPGVSVKISCKGSGYTFTDYAMNWVKQSHAKSLEWIGVISTYYGDANYNQKFKGKATMTVDKSSSTAYMELARLTSEDSAIYYCALIYYDYDGSYWGQGTTLTVS
VL: DVVMTQTPLSLPVSLGDQASISCRSSQSLVHSNGNTYLHWYLQKPGQSPKLLIYKVSNRFSGVPDRFSGSGSGTDFTLKISRVEAEDLGVYFCSQSTHVPPYTFGGGTKLEIK

Target: T1, KIR3DL1 (CD158e1) (UniProt P43629 22-444, limits assumed)
T1 construct: also called closely related KIR3DL1
T1 sequence (P43629 22-444 limits assumed): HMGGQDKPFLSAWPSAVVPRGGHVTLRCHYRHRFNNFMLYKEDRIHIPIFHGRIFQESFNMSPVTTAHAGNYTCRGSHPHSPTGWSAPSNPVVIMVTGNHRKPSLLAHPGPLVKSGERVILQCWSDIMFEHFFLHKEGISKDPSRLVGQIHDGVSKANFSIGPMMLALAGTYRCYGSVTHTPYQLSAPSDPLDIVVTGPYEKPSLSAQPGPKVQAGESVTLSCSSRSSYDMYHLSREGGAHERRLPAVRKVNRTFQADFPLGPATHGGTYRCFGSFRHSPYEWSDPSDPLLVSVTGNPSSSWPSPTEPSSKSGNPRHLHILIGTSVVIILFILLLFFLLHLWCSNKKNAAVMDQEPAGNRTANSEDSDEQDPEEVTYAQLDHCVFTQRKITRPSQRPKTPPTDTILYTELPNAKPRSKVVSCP
Test: hybridoma screening (flow cytometry, incl. HEK-293T/KIR3DL1 Domain 0-eGFP)
Experimental: Antibodies which bind KIR3DL2 but not closely related KIR3DL1 were generated by immunizing mice with recombinant KIR3DL2-Fc fusion protein, described in US patent publication number US-2015-0232556-A1. Supernatant (SN) of the growing hybridomas were tested by flow cytometry on Sezary Syndrome cell lines (HUT78, COU-L) and HEK-293T/KIR3DL2 Domain 0-eGFP. Potentially interesting hybridomas selected from the initial screening were cloned by limiting dilution techniques in 96-wells plates. The secondary screen involved selection of hybridomas of interest by testing supernatants of the subclones by flow cytometry on HUT78, COU-L, HEK-293T/KIR3DL1 Domain 0-eGFP and HEK-293T/KIR3DL2 Domain 0-eGFP. Positive subclones were injected into mice to produce ascitis and antibodies of interest were purified before being tested in a Biacore assay using rec KIR3DL2 chips, followed by various assays formats based on binding to human KIR3DL2-expressing cells.

| Binder | binding result |
| --- | --- |
| B1 | no binding |

Target: T2, human KIR3DL2 (CD158k), wild type, at the cell surface (human, UniProt P43630 22-455)
T2 construct: also called WTaKIR3DL2; un-mutated wild type KIR3DL2
T2 sequence (P43630 22-455 E158D): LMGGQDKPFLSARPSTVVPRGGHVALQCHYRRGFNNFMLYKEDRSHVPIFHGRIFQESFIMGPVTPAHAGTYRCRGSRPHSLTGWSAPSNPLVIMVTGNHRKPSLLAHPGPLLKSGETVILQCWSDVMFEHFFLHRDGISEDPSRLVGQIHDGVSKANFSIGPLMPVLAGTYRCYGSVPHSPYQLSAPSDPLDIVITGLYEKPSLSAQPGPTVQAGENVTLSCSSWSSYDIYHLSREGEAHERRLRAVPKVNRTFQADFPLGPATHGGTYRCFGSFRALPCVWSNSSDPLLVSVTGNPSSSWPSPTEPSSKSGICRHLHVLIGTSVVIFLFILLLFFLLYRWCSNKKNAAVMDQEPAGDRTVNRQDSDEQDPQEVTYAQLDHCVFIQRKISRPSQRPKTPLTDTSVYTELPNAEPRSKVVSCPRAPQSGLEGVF
Test: fluoro-microscopy on HUT78 cells, 10 µg/ml, goat anti-mouse Alexa594
Experimental: Internalization of antibodies 10F6, 2B12, 18C6, 9E10, 10G5, 13H1, 4B5, 5H1, 1E2, 1C3 and 20E9, as well as antibody AZ158 (an anti-domain 0 mAb as comparator) and other anti-D1 antibodies as disclosed in PCT applications WO2014/044686 and WO2014/044681 were assessed by fluoro-microscopy using the HUT78 SS cell line.
Hut-78 cells were incubated during 1H at 4° C. with 10 μg/ml of the different antibodies. After this incubation cells were either fixed (t=OH) or incubated for 2H at 37° C. Cells incubated for 2H were then fixed and stained. Antibodies were stained using goat anti-mouse antibodies coupled to Alexa594 (Invitrogen, A11032). […] Pictures were acquired using an Apotome device (Zeiss) and analyzed using the Axiovision software.

| Binder | binding result |
| --- | --- |
| B2 | binds |
| B3 | binds |
| B4 | binds |
| B5 | binds |
| B6 | binds |
